Data taken from the supplement of paper PMC12855868.

B1: library; numbered along this chain (parent)
chain: MAAAGGARLLRAASAVLGGPAGRWLHHAGSRAGSSGLLRNRGPGGSAEASRSLSVSARARSSSEDKITVHFINRDGETLTTKGKVGDSLLDVVVENNLDIDGFGACEGTLACSTCHLIFEDHIYEKLDAITDEENDMLDLAYGLTDRSRLGCQICLTKSMDNMTVRVPETVADARQSIDVGKTS

Variants of: B1
Assay: scaled log2 fold change in cell abundance, elesclomol vs control (0 = silent mean, 1 = nonsense mean) (scaled log2 ratio); higher = higher viability under elesclomol (loss of FDX1 cuproptosis function)
Details: glucose 10 mM
[1] = with ABC1 FDX1 KO, elesclomol 5 nM, 14 days
[2] = with HEK293T FDX1 KO, elesclomol 40 nM, 11 days
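Note: variant abundance is its share of total variant reads in each endpoint sample, from next-generation sequencing of the integrated ORF PCR-amplified out of genomic DNA.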

Row | Variant | scaled log2 fold change [1] | scaled log2 fold change [2]
1 | G181W | 0.226 | 0.364
2 | L53C | 0.0732 | -0.0888
3 | L53H | 0.262 | -0.0475
4 | I100R | 0.287 | 0.0979
5 | A57N | 0.029 | 0.245
6 | A129H | -0.541 | 
7 | R175N | 0.0623 | 0.495
8 | R175V | 0.472 | -0.0442
9 | I178V | -0.343 | 0.0591
10 | S113Y | 0.038 | 0.0184
11 | L89Q | 1.64 | 0.508
12 | I123L | -0.128 | -0.00641
13 | P20A | -0.601 | 0.0404
14 | S30I | 0.0124 | -0.232
15 | S30A | 0.166 | -0.0965
16 | N96S | -0.155 | -0.272
17 | I72F | -0.0218 | -0.0982
18 | I72G | -0.24 | -0.556
19 | A7Y | 0.0823 | 0.506
20 | I154L | 0.117 | 0.0996
21 | D136T | 0.611 | 0.431
22 | D136C | 0.0368 | 0.938
23 | D87K | 0.34 | 0.127
24 | N73K | 0.136 | 1.39

Row | Variant | scaled log2 fold change [1] | scaled log2 fold change [2]
25 | L38I | -0.615 | 0.0108
26 | D121G | 0.178 | -0.427
27 | D121W | 0.324 | -0.123
28 | N162L | -0.0365 | -0.341
29 | N162Q | 0.14 | -1.17
30 | E134V | 0.638 | 0.419
31 | G5Q | 0.0157 | -0.646
32 | G5V | 0.268 | -0.396
33 | I118T | -0.289 | 0.934
34 | I118H | 0.249 | 0.918
35 | I118V | -0.103 | -0.548
36 | R147G | -0.409 | 0.00185
37 | R147F | 0.104 | -0.384
38 | A59W | 0.216 | 0.283
39 | H26G | -0.196 | -0.699
40 | C115G | 1.06 | 1.1
41 | L144K | 0.175 | -0.503
42 | A3F | -0.338 | 0.0034
43 | A111C | -0.264 | 2.92
44 | A111R | -0.24 | 
45 | E48G | 0.667 | 0.934
46 | S56F | 0.177 | 
47 | S159N | 0.273 | -0.128
48 | L140V | -0.00688 | 0.753

Row | Variant | scaled log2 fold change [1] | scaled log2 fold change [2]
49 | V69L | -0.537 | -0.407
50 | L10H | 0.222 | -0.209
51 | Y124L | 0.252 | 0.75
52 | K182Y | 0.0751 | -0.398
53 | E107T | -0.333 | 0.112
54 | H70G | 0.373 | 1.09
55 | H27K | 0.325 | 0.621
56 | N40D | -0.359 | -0.577
57 | N40T | -0.748 | -0.708
58 | A2Q | -0.344 | -0.344
59 | A141Y | -0.374 | -0.341
60 | T114N | 0.0748 | 1.03
61 | L150M | -0.0616 | -0.103
62 | T81D | -0.11 | -0.616
63 | T81R | 0.181 | 0.0327
64 | V93F | 0.266 | -0.377
65 | L37V | 0.412 | 
66 | A28D | 0.233 | -0.109
67 | G42K | 0.0974 | 0.00685
68 | G42E | -0.302 | 0.67
69 | R8N | 0.424 | -0.174
70 | R8E | 0.00393 | -0.121
71 | R8C | 0.116 | 1.05
72 | L98P | -0.901 | 0.205

Row | Variant | scaled log2 fold change [1] | scaled log2 fold change [2]
73 | L98I | -0.0119 | -0.482
74 | N97Q | -0.273 | 0.204
75 | G22L | -0.306 | 
76 | G22F | 0.555 | 
77 | L127N | 0.0507 | 1.27
78 | L127P | 0.814 | 1.12
79 | K84S | 0.112 | 0.32
80 | D139F | 0.257 | 0.819
81 | V16P | -0.0976 | 0.175
82 | G44W | 0.253 | 0.857
83 | V94G | -0.377 | 
84 | T131Q | 0.134 | 0.928
85 | D65H | 0.192 | 0.0338
86 | D65M | -0.334 | -0.318
87 | V165Q | 1.06 | 1.21
88 | D91W | 0.0916 | -0.265
89 | T183F | 0.0658 | -0.199
90 | G36E | 0.292 | 0.257
91 | A172T | -0.0186 | 1.1
92 | G151F | 1.04 | 1.32
93 | G151Q | 1.11 | 1.05
94 | L17W | 0.321 | -0.126
95 | F103E | 0.983 | 0.679
96 | E95M | 0.0861 | -0.356

Row | Variant | scaled log2 fold change [1] | scaled log2 fold change [2]
97 | D173T | -0.0187 | 
98 | L117I | -0.11 | -0.196
99 | V85H | -0.166 | -0.307
100 | C106H | 1.11 | 1
101 | K158V | 0.0943 | -0.343
102 | K158Y | 0.0178 | -1.33
103 | T157E | 0.0855 | -0.0584
104 | T109W | -0.657 | 0.253
105 | T109I | -0.689 | -0.157
106 | T109R | -0.153 | 1.07
107 | T109V | -0.651 | 
108 | S34V | 0.0515 | -1.09
109 | H116L | -0.55 | -0.291
110 | R58A | 0.173 | 0.434
111 | R11H | 0.0541 | -0.696
112 | L138F | 0.0535 | -0.0648
113 | D179L | 0.0184 | 1.12
114 | F119Y | 0.389 | 0.17
115 | E120A | 0.194 | -0.0676
116 | E120R | 0.278 | -0.473
117 | G108L | 1.02 | 1.11
118 | G6Q | 0.208 | -0.0414
119 | G83H | 0.285 | -0.572
